{
  "source": "paper PMC10180074",
  "about": "“Improved Stability and Catalytic Efficiency of ω-Transaminase in Aqueous Mixture of Deep Eutectic Solvents” (Molecules, 2023)",
  "key": {"CC(=O)C(=O)O": {"tested_on": "CC(=O)C(=O)O", "assay": "Michaelis-Menten fit; acetophenone by HPLC", "format": "biochemical, Aspergillus terreus", "settings": "phosphate buffer, no DES, 1-(R)-PEA co-substrate, PLP, pH 8.0, 40 °C", "source_text": "(§1) Michaelis-Menten fit; acetophenone by HPLC on ω-TA variant from Aspergillus terreus (E133A)"}, "C[C@@H](N)c1ccccc1": {"tested_on": "C[C@@H](N)c1ccccc1", "assay": "Michaelis-Menten fit; acetophenone by HPLC", "format": "biochemical, Aspergillus terreus", "settings": "phosphate buffer, no DES, pyruvate constant, PLP, pH 8.0, 40 °C", "source_text": "as §1"}},
  "data": [
    {"substance": "ω-TA variant from Aspergillus terreus (E133A) (Aspergillus terreus NIH2624; E133A)", "values": [
      {"measurement": "Km", "setting": "CC(=O)C(=O)O", "value": "640 ± 70", "unit": "µM"},
      {"measurement": "kcat", "setting": "CC(=O)C(=O)O", "value": "0.54967 ± 0.0005", "unit": "s⁻¹"},
      {"measurement": "kcat/Km", "setting": "CC(=O)C(=O)O", "value": 853, "unit": "M⁻¹ s⁻¹"},
      {"measurement": "Km", "setting": "C[C@@H](N)c1ccccc1", "value": "650 ± 70", "unit": "µM"},
      {"measurement": "kcat", "setting": "C[C@@H](N)c1ccccc1", "value": "0.8027 ± 0.000833", "unit": "s⁻¹"},
      {"measurement": "kcat/Km", "setting": "C[C@@H](N)c1ccccc1", "value": 1230, "unit": "M⁻¹ s⁻¹"}
    ]}
  ]
}
